According to patent publication US20060099150A1 (published 2006):

Target: T1, pIgR Domain 6 GST (D6-GST) fusion protein, species not stated (Schistosoma japonica, UniProt P08515 1-218 = GST)
T1 construct: also called D6-GST constructs
Experiment: SPR BIAcore, 1:1 Langmuir global fit 62.5-1000 nM; ligand not named

T1 sequence (P08515 whole entry, the tested form may be a part): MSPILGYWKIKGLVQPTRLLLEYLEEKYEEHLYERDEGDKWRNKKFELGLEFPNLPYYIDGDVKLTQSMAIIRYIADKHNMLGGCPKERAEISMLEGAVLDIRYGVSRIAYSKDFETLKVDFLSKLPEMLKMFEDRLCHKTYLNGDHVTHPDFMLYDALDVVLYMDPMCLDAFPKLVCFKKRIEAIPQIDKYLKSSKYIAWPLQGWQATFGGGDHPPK

Binder	Ka [M⁻¹]	Kd [nM]	koff [s⁻¹]	kon [M⁻¹ s⁻¹]
single chain antibody sFv5A (scFv, also called sFv (positive control)) scFv: QVQLQQSGGGVVQPGRSLRLSCAASGFTFSSYAMHWVRQAPGKGLEWVSAISGSGGSTYYADSVKGRFTISRDNAKNSLYLQMNSLRAEDTAVYYCARDTRGYFDLWGRGTLVTVSSGGGGSGGGGSGGGGSSELTQDPAMSVALGQTVRITCQGDSLRKYHASWYQQRPRQAPRLVVYGKNERPSGIPERFSGSTSGDTASLTISGLQAEDEADYYCHSRDSNADLVVFGGGTKVTVLGAAAEQKLISEEDLNGAAHHHHHH	6.31e+06	158	0.00464	29300
sFv5AF-Cys (scFv, also called s5AF-Cys; sFv5AF-Cys starting material) scFv: DYKAKQVQLVQSGGGVVQPGRSLRLSCAASGFTFSSYAMHWVRQAPGKGLEWVSAISGSGGSTYYADSVKGRFTISRDNAKNSLYLQMNSLRAEDTAVYYCARDTRGYFDLWGRGTLVTVSSGGGGSGGGGSGGGGSSELTQDPAMSVALGQTVRITCQGDSLRKYHASWYQQRPRQAPRLVVYGKNERPSGIPERFSGSTSGDTASLTISGLQAEDEADYYCHSRDSNADLVVFGGGTKVTVLGGGGGSCAAAEQKLISEEDLNGAAHHHHHH	9.84e+06	102	0.00464	37600
